From patent publication US20150141622A1 (published 2015)

Biological target: T1, mature form of human VEGF-C (human, UniProt P49767 103-227)
T1 sequence: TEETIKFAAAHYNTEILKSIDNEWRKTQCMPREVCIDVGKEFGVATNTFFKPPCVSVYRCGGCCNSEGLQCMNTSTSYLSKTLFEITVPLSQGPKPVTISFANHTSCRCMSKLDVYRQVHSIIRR
Assay: cell-based or functional assay

Molecule | VEGF-C dependent viability (Ba/F3 VEGFR-3/EpoR, MTT) (fold molar excess) | VEGF-C-dependent cell survival (Ba/F3 VEGFR-3/EpoR, MTT)
VEGFR-2-Ig (Fc fusion) | 10 | –
VEGFR-3-Ig fusion protein (first three Ig-homology domains of VEGFR-3 and IgG Fc domain) (Fc fusion, not shown: a dimerising Fc or GST) YSMTPPTLNITEESHVIDTGDSLSISCRGQHPLEWAWPGAQEAPATGDKDSEDTGVVRDCEGTDARPYCKVLLLHEVHANDTGSYVCYYKYIKARIEGTTAASSYVFVRDFEQPFINKPDTLLVNRKDAMWVPCLVSIPGLNVTLRSQSSVLWPDGQEVVWDDRRGMLVSTPLLHDALYLQCETTWGDQDFLSNPFLVHITGNELYDIQLLPRKSLELLVGEKLVLNCTVWAEFNSGVTFDWDYPGKQAERGKWVPERRSQQTHTELSSILTIHNVSQHDLGSYVCKANNGIQRFRESTEVIVHE | – | 0.5 molar ratio (VEGFR-3-Ig:VEGF-C)
